What all share (assay): cell-based or functional assay
Assay [1] deals with mouse class I MHC D^d (full length, without signaling molecule) (mouse) (UniProt P01900).
The target in assay [2] is D^d/zeta chimera (mouse class I MHC D^d fused to the murine T cell receptor zeta chain) (mouse) (UniProt P24161).
Assay [3] deals with mouse class I MHC D^d (full length, without signaling molecule) (mouse) (UniProt P01900). The source holds these as a separate data set.
Assay [4] concerns the target D^d/zeta chimera (mouse class I MHC D^d fused to the murine T cell receptor zeta chain) (mouse) (UniProt P24161). This is another data set of the same source.
Assay [5] concerns the target CD3 portion of the T cell receptor on Jurkat cells (human) (UniProt P07766).
Assay [6] shares this target. The source holds these as a separate data set.

Like-named read-outs stand apart in the source and are kept apart here.

Sequence of CD3 portion of the T cell receptor on Jurkat cells (human) (P07766 23-207): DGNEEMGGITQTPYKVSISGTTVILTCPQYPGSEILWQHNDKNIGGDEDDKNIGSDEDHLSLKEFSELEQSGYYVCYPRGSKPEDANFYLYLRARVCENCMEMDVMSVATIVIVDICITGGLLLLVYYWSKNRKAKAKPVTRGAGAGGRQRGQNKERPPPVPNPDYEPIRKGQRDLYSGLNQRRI
Sequence of mouse class I MHC D^d (full length, without signaling molecule) (mouse) (P01900 25-365): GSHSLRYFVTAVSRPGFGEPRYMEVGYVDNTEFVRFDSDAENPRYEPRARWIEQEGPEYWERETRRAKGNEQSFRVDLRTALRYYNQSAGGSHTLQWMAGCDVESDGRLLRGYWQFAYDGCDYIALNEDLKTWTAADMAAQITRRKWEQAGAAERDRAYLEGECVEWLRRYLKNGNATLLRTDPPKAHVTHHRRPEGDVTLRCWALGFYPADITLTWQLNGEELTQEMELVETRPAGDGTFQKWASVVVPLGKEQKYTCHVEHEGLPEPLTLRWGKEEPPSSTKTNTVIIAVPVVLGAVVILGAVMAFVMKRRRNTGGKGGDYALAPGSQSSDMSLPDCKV

Turning to anti-D^d monoclonal antibody (34-2-12), in assay [1], the cellular proliferation ([3H]TdR) of spleen lymphoid cells of pD^d1 (D^d) transgenic mice, anti-D^d + anti-CD8 + anti-CD3 mAbs together turned out to be 25000; the cellular proliferation ([3H]TdR) of spleen lymphoid cells of pD^d1 (D^d) transgenic mice, anti-D^d + anti-CD8 mAbs together was 1240; the cellular proliferation ([3H]TdR) of spleen lymphoid cells of pD^d1 (D^d) transgenic mice, anti-D^d mAb alone turned out to be 897. Also, in assay [2], the Proliferation (CPM) of CTLL-2 cells (IL-2 in supernatant of J11-6 (D^d/zeta) Jurkat cells), with PMA was found to be 26800 CPM; the Proliferation (CPM) of CTLL-2 cells (IL-2 in supernatant of J11-6 (D^d/zeta) Jurkat cells), without PMA came to 338 CPM; the cellular proliferation ([3H]TdR) of spleen lymphoid cells of D^d/zeta transgenic mice, anti-D^d + anti-CD8 + anti-CD3 mAbs together came to 253000; the cellular proliferation ([3H]TdR) of spleen lymphoid cells of D^d/zeta transgenic mice, anti-D^d + anti-CD8 mAbs together was 242000. Also, in assay [2], the cellular proliferation ([3H]TdR) of spleen lymphoid cells of D^d/zeta transgenic mice, anti-D^d mAb alone is 303000 and the fold enhancement of proliferation over the D^d alone expressing cells was in the range of 10 to 300 fold. In assay [3], the Proliferation (CPM) of CTLL-2 cells (IL-2 in supernatant of #19 (D^d) Jurkat cells), with PMA is 5520 CPM and the Proliferation (CPM) of CTLL-2 cells (IL-2 in supernatant of #19 (D^d) Jurkat cells), without PMA came to 492 CPM. In assay [4], the Proliferation (CPM) of CTLL-2 cells (IL-2 in supernatant of J11-6 (D^d/zeta) Jurkat cells), with PMA was 16700 CPM and the Proliferation (CPM) of CTLL-2 cells (IL-2 in supernatant of J11-6 (D^d/zeta) Jurkat cells), without PMA was 361 CPM.
In assay [5], OKT3, an anti-CD3 antibody yielded a Proliferation (CPM) of CTLL-2 cells (IL-2 in supernatant of untransfected Jurkat cells), with PMA of 2200 CPM and a Proliferation (CPM) of CTLL-2 cells (IL-2 in supernatant of untransfected Jurkat cells), without PMA of 1180 CPM. In assay [6], this substance gave a Proliferation (CPM) of CTLL-2 cells (IL-2 in supernatant of #19 (D^d) Jurkat cells), with PMA of 10900 CPM and a Proliferation (CPM) of CTLL-2 cells (IL-2 in supernatant of #19 (D^d) Jurkat cells), without PMA of 9530 CPM.

Source of the values: patent publication US6491908.
